We go through 13 sequences from US20240376151A1, “STAPLED PEPTIDES AND METHODS THEREOF” (FOG PHARMACEUTICALS, INC., priority 2022, published 2024).

For the test, the target named is T1, CHIP (Homo sapiens, UniProt Q9UNE7).
T1 construct: N-term truncated CHIP (also known as STUB1, Uniprot ID: Q9UNE7, residues 23-303); made in house; host or cells: E. coli BL21 CodonPlus
T1 sequence (Q9UNE7 23-303): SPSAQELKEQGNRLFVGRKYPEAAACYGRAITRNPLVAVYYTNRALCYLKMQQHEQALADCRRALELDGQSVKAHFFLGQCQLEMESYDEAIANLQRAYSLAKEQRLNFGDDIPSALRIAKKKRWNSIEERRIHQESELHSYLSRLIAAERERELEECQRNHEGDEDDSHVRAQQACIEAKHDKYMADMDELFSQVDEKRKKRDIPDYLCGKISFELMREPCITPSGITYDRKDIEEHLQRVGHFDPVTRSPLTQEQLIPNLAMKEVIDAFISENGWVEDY
Briefly: Naive Library Presenter Screening (phage, NGS), CHIP. In kind it is binding. As to conditions: CHIP clusters (C83, C84); for interaction data, BLANK: Blank = Media only; for interaction data at Target Concentration 10: target concentration 10 nM; for interaction data at Target Concentration 30: target concentration 30 nM; for interaction data at Target Concentration 100: target concentration 100 nM; for interaction data at Target Concentration 300: target concentration 300 nM; for interaction data at Target Concentration 1000: target concentration 1000 nM. As to the method:
To conduct phage library screening, previously described procedures were utilized in accordance with the present disclosure.
Next-generation sequencing was performed as described in accordance with the present disclosure.
Hit ID and Clustering is performed according to a described procedure in accordance with the present disclosure.

Numbered stars: 1 amine (or outer) side, 2 acyl side, 3 side chain; on linkers, the order of the positions; unused ones are H or OH. Bridge positions count the residues as written; N and C are the ends. Ends that are not written are not given here. Phenylene(1,4-NHCOCH2)2 = O=C(C[*:1])Nc1ccc(NC(=O)C[*:2])cc1

For “DPAFEYCQWAAATCQMD (linker 7-14 via Phenylene(1,4-NHCOCH2)2 (inferred))”, the “interaction data at Target Concentration 10” value amounted to 0, the “interaction data at Target Concentration 30” value is on record as 12, the “interaction data at Target Concentration 100” value is reported as 0 and the “interaction data at Target Concentration 300” value was 43. For the same sequence, for the setting “first column”, the “interaction data, BLANK” value was 0 and the “interaction data at Target Concentration 1000” value was determined as 46. For the setting “second column”, the “interaction data, BLANK” value came to 0 and the “interaction data at Target Concentration 1000” value was 90.
Turning to “DPAFFECVRAASICMVD (linker 7-14 via Phenylene(1,4-NHCOCH2)2 (inferred))”, the “interaction data at Target Concentration 10” value is on record as 0, the “interaction data at Target Concentration 30” value was determined as 0, the “interaction data at Target Concentration 100” value stood at 0 and the “interaction data at Target Concentration 300” value was found to be 51. Also, under “first column”, the “interaction data, BLANK” value worked out at 0 and the “interaction data at Target Concentration 1000” value was 41. Further, where the note is “second column”, the “interaction data, BLANK” value came out at 0 and the “interaction data at Target Concentration 1000” value was 54.
In the case of “DPAFTACQFAAAMCDSS (linker 7-14 via Phenylene(1,4-NHCOCH2)2 (inferred))”, the “interaction data at Target Concentration 10” value was 0, the “interaction data at Target Concentration 30” value is 0, the “interaction data at Target Concentration 100” value was determined as 0 and the “interaction data at Target Concentration 300” value turned out to be 3. In addition, where the note is “first column”, the “interaction data, BLANK” value was found to be 0 and the “interaction data at Target Concentration 1000” value is given as 8. Moreover, for the setting “second column”, the “interaction data, BLANK” value is recorded as 0 and the “interaction data at Target Concentration 1000” value was 5.
“DPAFTRCQFAAAVCNFT (linker 7-14 via Phenylene(1,4-NHCOCH2)2 (inferred))”: the “interaction data at Target Concentration 10” value was 0, the “interaction data at Target Concentration 30” value amounted to 3, the “interaction data at Target Concentration 100” value amounted to 0 and the “interaction data at Target Concentration 300” value is 6. Besides, for the setting “first column”, the “interaction data, BLANK” value is recorded as 0 and the “interaction data at Target Concentration 1000” value turned out to be 19. Further, under “second column”, the “interaction data, BLANK” value amounted to 0 and the “interaction data at Target Concentration 1000” value is given as 28.
Turning to “DPAFVRCQFAAASCHTI (linker 7-14 via Phenylene(1,4-NHCOCH2)2 (inferred))”, the “interaction data at Target Concentration 10” value was found to be 0, the “interaction data at Target Concentration 30” value turned out to be 0, the “interaction data at Target Concentration 100” value is 0 and the “interaction data at Target Concentration 300” value amounted to 22. Where the note is “first column”, the “interaction data, BLANK” value is listed as 0 and the “interaction data at Target Concentration 1000” value was found to be 27. Further, where the note is “second column”, the “interaction data, BLANK” value is reported as 0 and the “interaction data at Target Concentration 1000” value turned out to be 19.
For “DPAFWQCQFAAATCAHY (linker 7-14 via Phenylene(1,4-NHCOCH2)2 (inferred))”, the “interaction data at Target Concentration 10” value was 0, the “interaction data at Target Concentration 30” value is listed as 0, the “interaction data at Target Concentration 100” value was 19 and the “interaction data at Target Concentration 300” value was found to be 16. In addition, for the setting “first column”, the “interaction data, BLANK” value is 0 and the “interaction data at Target Concentration 1000” value worked out at 70. For the same sequence, under “second column”, the “interaction data, BLANK” value was 0 and the “interaction data at Target Concentration 1000” value came out at 44.
With “DPAFWRCQFAAATCEHT (linker 7-14 via Phenylene(1,4-NHCOCH2)2 (inferred))”, the “interaction data at Target Concentration 10” value was determined as 2, the “interaction data at Target Concentration 30” value came out at 3, the “interaction data at Target Concentration 100” value was 210 and the “interaction data at Target Concentration 300” value was determined as 321. Also, for the setting “first column”, the “interaction data, BLANK” value is given as 1 and the “interaction data at Target Concentration 1000” value is on record as 597. In addition, for the setting “second column”, the “interaction data, BLANK” value was found to be 0 and the “interaction data at Target Concentration 1000” value is on record as 726.
For “DPAFWSCQFAAATCSHL (linker 7-14 via Phenylene(1,4-NHCOCH2)2 (inferred))”, the “interaction data at Target Concentration 10” value turned out to be 0, the “interaction data at Target Concentration 30” value is recorded as 0, the “interaction data at Target Concentration 100” value is 4 and the “interaction data at Target Concentration 300” value was 6. Where the note is “first column”, the “interaction data, BLANK” value is 0 and the “interaction data at Target Concentration 1000” value was determined as 11. Further, for the setting “second column”, the “interaction data, BLANK” value is listed as 0 and the “interaction data at Target Concentration 1000” value came to 8.
As to “DPAFWVCQYAAAMCQDV (linker 7-14 via Phenylene(1,4-NHCOCH2)2 (inferred))”, the “interaction data at Target Concentration 10” value amounted to 8, the “interaction data at Target Concentration 30” value is reported as 3, the “interaction data at Target Concentration 100” value is 160 and the “interaction data at Target Concentration 300” value amounted to 86. Where the note is “first column”, the “interaction data, BLANK” value came out at 1 and the “interaction data at Target Concentration 1000” value is listed as 331. In addition, where the note is “second column”, the “interaction data, BLANK” value stood at 0 and the “interaction data at Target Concentration 1000” value was found to be 323.
Regarding “DPAIIWCSQAASICTVD (linker 7-14 via Phenylene(1,4-NHCOCH2)2 (inferred))”, the “interaction data at Target Concentration 10” value worked out at 0, the “interaction data at Target Concentration 30” value worked out at 0, the “interaction data at Target Concentration 100” value amounted to 19 and the “interaction data at Target Concentration 300” value is 15. Also, for the setting “first column”, the “interaction data, BLANK” value is recorded as 0 and the “interaction data at Target Concentration 1000” value is given as 23. For the setting “second column”, the “interaction data, BLANK” value amounted to 0 and the “interaction data at Target Concentration 1000” value was determined as 24.
“DPAINMCYRAAQICDVD (linker 7-14 via Phenylene(1,4-NHCOCH2)2 (inferred))”: the “interaction data at Target Concentration 10” value turned out to be 0, the “interaction data at Target Concentration 30” value worked out at 0, the “interaction data at Target Concentration 100” value is on record as 0 and the “interaction data at Target Concentration 300” value stood at 31. For the same sequence, for the setting “first column”, the “interaction data, BLANK” value was determined as 0 and the “interaction data at Target Concentration 1000” value was determined as 28. For the same sequence, for the setting “second column”, the “interaction data, BLANK” value is reported as 0 and the “interaction data at Target Concentration 1000” value was 27.
For “DPALEECTQAAHICMVD (linker 7-14 via Phenylene(1,4-NHCOCH2)2 (inferred); not fully specified (C-terminus))”, the “interaction data at Target Concentration 10” value was 0, the “interaction data at Target Concentration 30” value was 0, the “interaction data at Target Concentration 100” value is recorded as 3 and the “interaction data at Target Concentration 300” value is 14. Under “first column”, the “interaction data, BLANK” value is 0 and the “interaction data at Target Concentration 1000” value stood at 26. Moreover, for the setting “second column”, the “interaction data, BLANK” value is 0 and the “interaction data at Target Concentration 1000” value was 10.
Consider “DPALWNCQYAAVMCTQL (linker 7-14 via Phenylene(1,4-NHCOCH2)2 (inferred); not fully specified (C-terminus))”, for which the “interaction data at Target Concentration 10” value was determined as 0, the “interaction data at Target Concentration 30” value was found to be 0, the “interaction data at Target Concentration 100” value is 0 and the “interaction data at Target Concentration 300” value came out at 14. Moreover, where the note is “first column”, the “interaction data, BLANK” value worked out at 0 and the “interaction data at Target Concentration 1000” value is 34. Besides, for the setting “second column”, the “interaction data, BLANK” value was 0 and the “interaction data at Target Concentration 1000” value is reported as 75.
